# Measured values as given in US8673850B2, “PCSK9 inhibitors and methods of use thereof” (Institut de Recherches Cliniques de Montreal, priority 2008, dated 2014).
# Substitutions are numbered along the chain they refer to. Names and notes keep the numbering of the source.
# B1: AnxA1-(His)6: purified His-tagged Annexin A1 purchased from EMD biosciences (protein)
# chain: MAMVSEFLKQAWFIENEEQEYVQTVKSSKGGPGSAVSPYPTFNPSSDVAALHKAIMVKGVDEATIIDILTKRNNAQRQQIKAAYLQETGKPLDETLKKALTGHLEEVVLALLKTPAQFDADELRAAMKGLGTDEDTLIEILASRTNKEIRDINRVYREELKRDLAKDITSDTSGDFRNALLSLAKGDRSEDFGVNEDLADSDARALYEAGERRKGTDVNVFNTILTTRSYPQLRRVFQKYTKYSKHDMNKVLDLELKGDIEKCLTAIVKCATSKPAFFAEKLHQAMKGVGTRHKALIRIMVSRSEIDMNDIKAFYQKMYGISLCQAILDETKGDYEKILVALCGGNHHHHHH
# B2: K28S+D34N+E36S: AnxA2 with Lys28, Asp34, Glu36 replaced by AnxA1 Ser, Asn, Ser (protein)
# chain: MSTVHEILCKLSLEGDHSTPPSAYGSVSAYTNFNASRDALNIETAIKTKGVDEVTIVNILTNRSNAQRQDIAFAYQRRTKKELASALKSALSGHLETVILGLLKTPAQYDASELKASMKGLGTDEDSLIEIICSRTNQELQEINRVYKEMYKTDLEKDIISDTSGDFRKLMVALAKGRRAEDGSVIDYELIDQDARDLYDAGVKRKGTDVPKWISIMTERSVPHLQKVFDRYKSYSPYDMLESIRKEVKGDLENAFLNLVQCIQNKPLYFADRLYDSMKGKGTRDKVLIRIMVSRSEVDMLKIRSEFKRKYGKSLYYYIQQDTKGDYQKALLYLCGGDD
# B3: R37S+E43H+K47M: AnxA2 with Arg37, Glu43, Lys47 replaced by AnxA1 Ser, His, Met (protein)
# chain: B2 chain with S28K, N34D, S36E, R37S, E43H, K47M
# B4: SW49-75: AnxA2 segment aa 49-75 swapped with AnxA1 aa 58-84 (protein)
# chain: MSTVHEILCKLSLEGDHSTPPSAYGSVKAYTNFDAERDALNIETAIKTKGVDEATIIDILTKRNNAQRQQIKAAYQRRTKKELASALKSALSGHLETVILGLLKTPAQYDASELKASMKGLGTDEDSLIEIICSRTNQELQEINRVYKEMYKTDLEKDIISDTSGDFRKLMVALAKGRRAEDGSVIDYELIDQDARDLYDAGVKRKGTDVPKWISIMTERSVPHLQKVFDRYKSYSPYDMLESIRKEVKGDLENAFLNLVQCIQNKPLYFADRLYDSMKGKGTRDKVLIRIMVSRSEVDMLKIRSEFKRKYGKSLYYYIQQDTKGDYQKALLYLCGGDDYPYDVPDYA
# B5: Δ25-36: AnxA2 deletion of aa 25-36 (protein)
# chain: MSTVHEILCKLSLEGDHSTPPSAYRDALNIETAIKTKGVDEVTIVNILTNRSNAQRQDIAFAYQRRTKKELASALKSALSGHLETVILGLLKTPAQYDASELKASMKGLGTDEDSLIEIICSRTNQELQEINRVYKEMYKTDLEKDIISDTSGDFRKLMVALAKGRRAEDGSVIDYELIDQDARDLYDAGVKRKGTDVPKWISIMTERSVPHLQKVFDRYKSYSPYDMLESIRKEVKGDLENAFLNLVQCIQNKPLYFADRLYDSMKGKGTRDKVLIRIMVSRSEVDMLKIRSEFKRKYGKSLYYYIQQDTKGDYQKALLYLCGGDDYPYDVPDYA
# B6: AnxA1: human Annexin A1, closely related family member used as control (protein, UniProt P04083 2-346, looked up)
# Annexin A1: AMVSEFLKQAWFIENEEQEYVQTVKSSKGGPGSAVSPYPTFNPSSDVAALHKAIMVKGVDEATIIDILTKRNNAQRQQIKAAYLQETGKPLDETLKKALTGHLEEVVLALLKTPAQFDADELRAAMKGLGTDEDTLIEILASRTNKEIRDINRVYREELKRDLAKDITSDTSGDFRNALLSLAKGDRSEDFGVNEDLADSDARALYEAGERRKGTDVNVFNTILTTRSYPQLRRVFQKYTKYSKHDMNKVLDLELKGDIEKCLTAIVKCATSKPAFFAEKLHQAMKGVGTRHKALIRIMVSRSEIDMNDIKAFYQKMYGISLCQAILDETKGDYEKILVALCGGN
# Key:
# PCSK9-LDLR interaction = PCSK9-LDLR interaction (Homo sapiens, UniProt Q8NBP7); experiment: AlphaScreen PCSK9-LDLR interaction assay; format: binding
# Sequence of PCSK9-LDLR interaction (Q8NBP7 153-692): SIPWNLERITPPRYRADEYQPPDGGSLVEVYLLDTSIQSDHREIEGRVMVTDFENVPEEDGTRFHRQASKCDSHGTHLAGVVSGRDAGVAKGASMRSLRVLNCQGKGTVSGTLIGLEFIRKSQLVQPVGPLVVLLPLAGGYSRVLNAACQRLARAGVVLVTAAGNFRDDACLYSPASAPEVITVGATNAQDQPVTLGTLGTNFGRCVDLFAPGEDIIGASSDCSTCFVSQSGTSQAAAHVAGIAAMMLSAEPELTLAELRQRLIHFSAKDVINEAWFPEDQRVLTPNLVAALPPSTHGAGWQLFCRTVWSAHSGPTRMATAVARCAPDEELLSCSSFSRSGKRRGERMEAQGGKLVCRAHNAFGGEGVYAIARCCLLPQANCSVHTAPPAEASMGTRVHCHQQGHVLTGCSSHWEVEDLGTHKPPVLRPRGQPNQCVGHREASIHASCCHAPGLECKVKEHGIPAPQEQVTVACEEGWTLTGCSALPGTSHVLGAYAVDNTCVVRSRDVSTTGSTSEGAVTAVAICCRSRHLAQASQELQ
# Sequence of PCSK9-LDLR interaction (Q8NBP7 31-152 partner limits assumed): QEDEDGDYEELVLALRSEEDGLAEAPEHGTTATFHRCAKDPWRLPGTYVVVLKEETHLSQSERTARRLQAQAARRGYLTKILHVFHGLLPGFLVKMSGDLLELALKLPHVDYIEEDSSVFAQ
# Procedure: AlphaScreen® (Perkin Elmer) streptavidin donor beads were coated with purified biotin-conjugated PCSK9 and AlphaScreen® nickel chelate acceptor beads were coated with purified His6-conjugated LDLR ectodomain. Competition in the AlphaScreen® PCSK9-LDLR interaction assay was measured, in the presence of increasing concentrations of AnxA2-derived peptides, as a reduction of fluorescence.
# PCSK9-V5 [1] = biological target: T1, PCSK9-V5 (Homo sapiens, UniProt Q8NBP7); experiment: Hexa-His pull-down assay; format: binding; design: made in house; host or cells: CHO-K1 cells (conditioned medium, not purified); settings: 20 μg protein immobilized on cobalt chelate resin
# Procedure: 20 μg of purified AnxA2-(His)6 or AnxA1-(His)6 or no proteins (for negative control) were immobilized onto a cobalt chelate resin (Thermo Scientific). The resin was then washed several times with 40 mM immidazole and incubated overnight at 4° C. with 800 μl of conditioned media from PCSK9-V5-transfected CHO-K1 cells containing 40 mM immidazole. The resin was then washed several times with immidazole (40 mM), heated in reducing Laemmli sample buffer and centrifuged. Supernatants were analyzed by Western blot as described above using the anti-V5-HRP or anti-His-HRP antibodies.
# Target sequence in this assay (Q8NBP7 153-692): as the sequence (Q8NBP7 153-692) above
# Target sequence in this assay (Q8NBP7 31-152 partner limits assumed): as the sequence (Q8NBP7 31-152 partner limits assumed) above
# PCSK9-V5 [2] = biological target: T1, PCSK9-V5; experiment: Far Western blot with PCSK9-V5 conditioned media; format: binding; design: made in house; host or cells: CHO-K1 cells (conditioned medium, not purified); settings: lysates of cells overexpressing the construct
# Procedure: Lysates (20 to 30 μg protein), media or purified AnxA2-(His)6 were heated in reducing or non-reducing Laemmli sample buffer, resolved by SDS-PAGE on 8% glycine gels and electro-transferred onto nitrocellulose membranes (GE Healthcare). Following 1 h incubation in 5% skim milk in Tris-Buffered Saline-0.1% Tween (TBST), membranes where incubated with conditioned media of CHO-K1 cells overexpressing either an empty vector (pIRES-V5), PC5A-V5, CHRD-V5, pIRES-D374Y, PCSK9-V5 or its V5-tagged mutants, or incubated with purified AnxA2-(His)6 for 3 h at room temperature. […] For competition experiments, 10 μg of His-tagged PCSK9 or CHRD were added to the PCSK9-V5 media before Far Western blotting. For PCSK9 binding requirements with the ˜33 kDa protein, 1M NaCl, 10 mg/ml heparin, 1M NaCl+10 mg/ml heparin, or 100 mM EDTA were added to the PCSK9-V5 conditioned media used for Far Western blotting.
# Wild type human Annexin A2 (AnxA2) (ATCC #MGC-2257) and Annexin A1 (AnxA1) (ATCC #MGC-5095) were purchased from ATCC and subcloned into NheI/SacI digested pIRES2-EGFP vector. An HA epitope ([…]) was fused by PCR mutagenesis at the C-terminus of both AnxA1 and AnxA2. Two-steps PCRs were performed on AnxA2 cDNA to introduce point mutations (N62Q; S64A; K28S+D34N+E36S; R37S+E43H+K47M; 77RRTKK (SEQ ID NO: 26)>AATAK (SEQ ID NO: 27); ^77RRTKK (SEQ ID NO: 26)>AATAA (SEQ ID NO: 28); ^77RRTKKELASALK (SEQ ID NO: 29)>^77AATAAELASALA (SEQ ID NO: 30); 80KKELA (SEQ ID NO: 31)>GKPLD (SEQ ID NO: 32)), or amino acid (aa) deletions (Δ2-24, aa 2-24; ΔR1, aa 37-108; ΔR2, aa 109-192; ΔR3, aa 193-268; ΔR4, aa 269-339; Δ25-36, aa 25-36; Δ37-48, aa 37-48; Δ49-61, aa 49-61; Δ62-75, aa 62-75; Δ37-66, aa 37-66; Δ74-88, aa 74-88; Δ82-88, aa 82-88; Δ89-101, aa 89-101; Δ102-108, aa 102-108) into pIRES2-AnxA2-EGFP vector (see Table 3 above). In addition, using PCR, the AnxA2 segment aa 49-75 was swapped with the corresponding AnxA1 segment aa 58-84 [AnxA1 (aa 58-84)>AnxA2 (aa 49-75)]. Similar swaps were performed for the corresponding AnxA2 sequence with AnxA1 (AnxA1>AnxA2: aa 25-27; aa 28-30; aa 31-33; aa 34-36; aa 37-39; aa 40-42; aa 43-45; aa 46-48; aa 49-75; aa 49-61; aa 62-75). All final cDNA constructs were verified by DNA sequencing.
# Target sequence in this assay (Q8NBP7 153-692): as the sequence (Q8NBP7 153-692) above
# Target sequence in this assay (Q8NBP7 31-152 partner limits assumed): as the sequence (Q8NBP7 31-152 partner limits assumed) above
# PCSK9-V5 [3] = biological target: T1, PCSK9-V5; experiment: Co-immunoprecipitation in co-transfected CHO-K1 cells; format: binding; design: expressed in transfected cells; host or cells: CHO-K1 cells co-transfected with AnxA1-HA, AnxA2-HA or AnxA2-HA and p11; settings: co-expression in CHO-K1 cells
# Procedure: For immunoprecipitation cell lysates were incubated overnight at 4° C. with anti-V5-agarose beads (Sigma) and washed 5 times with cold lysis buffer.
# Target sequence in this assay (Q8NBP7 153-692): as the sequence (Q8NBP7 153-692) above
# LDLR = LDLR Western blot of transfected HEK293 cells; format: cell-based, human; settings: HEK293 cells (negligible PCSK9), with or without p11
# Procedure: HepG2, HuH7, COS-1, BSC40 and HEK293 cell were grown in Dulbecco's modified Eagle's medium (DMEM) with 10% fetal bovine serum (FBS; Gibco), whereas CHO-K1 and CHO-K1 mutant Pgsd-677 cells that lack heparan sulfate proteoglycans^26 were grown in Ham's F12:DMEM (50:50) media with 10% FBS. Y1 mouse adrenal cells were grown in F12K medium with 15% horse serum and 2.5% FBS. All cells were maintained at 37° C. under 5% CO2. At 80-90% confluence, HuH7 and CHO-K1 cells were transiently transfected with Lipofectamine™ 2000 (Invitrogen), HEK293 cells were transfected with Effectene™ (Qiagen) and HepG2 cells were transfected with Fugene™ HD (Roche). […] For analysis of the various AnxA2 mutants in HEK293 cells, 24 h post-transfection, the cells were washed and then incubated for another 24 h in complete medium containing 50 μM of the proteasome inhibitor ALLN (Calbiochem). Stable transfectants of shRNA-AnxA2 were obtained in HuH7 cells following puromycin selection.
# Western blotting experiments were made on samples that were reduced in Laemmli buffer, heated and resolved on 8% glycine SDS-PAGE gels. Separated proteins were then electro-transferred onto nitrocellulose, and probed with HRP-conjugated anti-V5 or anti-HA tags or with primary antibodies. […] Quantitation of band intensity was done with the ImageJ™ software version 1.37 (Wayne Rasband, National Institutes of Health, Bethesda, Md.).
molecule,measurement,setting,value
peptide extending from amino acid 49 to 97: shorter AnxA2-derived peptide extending from amino acid 49 to 97 (KGVDEVTIVNILTNRSNAQRQDIAFAYQRRTKKELASALKSALSGHLET; HOMO SAPIENS),inhibitory activity on the PCSK9-LDLR ectodomain interaction,PCSK9-LDLR interaction,inhibits the interaction between PCSK9 and the ectodomain of LDLR however to a lesser extent
"GSVKAYTNFDAERDALNIETAIKTKGVDEVTIVNILTNRSNAQRQDIAFAYQRRTKKELASALKSALSGHLET [No 896970, 73-mer AnxA2 R1 peptide extending from amino acids 25 to 97]",inhibition of the PCSK9-LDLR interaction,PCSK9-LDLR interaction; 10 uM (not shown),up to 90%
B1,PCSK9-V5 bound in pull-down,PCSK9-V5 [1],does not
B2,PCSK9-V5 binding by Far Western blot,PCSK9-V5 [2],slightly reduced the ability of PCSK9 to bind AnxA2
B3,PCSK9-V5 binding by Far Western blot,PCSK9-V5 [2],significant decrease of binding
B4,PCSK9-V5 binding by Far Western blot,PCSK9-V5 [2],abolished
B5,PCSK9-V5 binding by Far Western blot,PCSK9-V5 [2],abolished PCSK9 binding
B6,co-immunoprecipitation with PCSK9-V5,PCSK9-V5 [3],not
same,levels of endogenous LDLR,LDLR,None of these treatments affected the levels of endogenous LDLR
